Test results as given in US20050037448A1.

Tests used:
des-64,65-proinsulin [1] = target: des-64,65-proinsulin (UniProt P01308); experiment: competitive RIA, PEP001-coated tubes, 125I-Tyr-C-peptide; serum E1 overloaded with 0.16 pmol/ml des-64,65-proinsulin; competitor AC1D4 20 µg/ml
des-31,32-proinsulin [2] = target: des-31,32-proinsulin (UniProt P01308); experiment: sandwich immunoenzymatic C-peptide assay: PEP001 beads, goat polyclonal conjugate; competitors AC1D4 + BC9B6 in equal quantities, 40 µg/ml
des-64,65-proinsulin [3] = target: des-64,65-proinsulin (UniProt P01308); experiment: as above
human proinsulin (human) [4] = target: human proinsulin (human) (UniProt P01308); experiment: as above
human proinsulin (human) [5] = target: human proinsulin (human) (UniProt P01308); experiment: competitive RIA, PEP001-coated tubes, 125I-Tyr-C-peptide; serum E1 overloaded with 0.67 pmol/ml proinsulin; no AC1D4
des-31,32-proinsulin [6] = target: des-31,32-proinsulin (UniProt P01308); experiment: sandwich immunoenzymatic C-peptide assay: PEP001 beads, goat polyclonal conjugate; no AC1D4 or BC9B6
des-64,65-proinsulin [7] = target: des-64,65-proinsulin (UniProt P01308); experiment: as above
human proinsulin (human) [8] = target: human proinsulin (human) (UniProt P01308); experiment: as above
des-31,32-proinsulin [9] = target: des-31,32-proinsulin (UniProt P01308); experiment: sandwich immunoenzymatic C-peptide assay: PEP001 beads, goat polyclonal anti-C-peptide-alkaline phosphatase; competitor BC9B6 20 µg/ml
des-64,65-proinsulin [10] = target: des-64,65-proinsulin (UniProt P01308); experiment: as above
human proinsulin (human) [11] = target: human proinsulin (human) (UniProt P01308); experiment: as above
human proinsulin (human) [12] = target: human proinsulin (human) (UniProt P01308); experiment: competitive RIA, PEP001-coated tubes, 125I-Tyr-C-peptide; serum E1 overloaded with 3.33 pmol/ml proinsulin; competitor AC1D4 20 µg/ml
human proinsulin (human) [13] = target: human proinsulin (human) (UniProt P01308); experiment: competitive RIA, PEP001-coated tubes, 125I-Tyr-C-peptide; serum E2 overloaded with 3.33 pmol/ml proinsulin; no AC1D4
des-31,32-proinsulin [14] = target: des-31,32-proinsulin (UniProt P01308); experiment: competitive RIA, PEP001-coated tubes, 125I-Tyr-C-peptide; serum E1 overloaded with 0.67 pmol/ml des-31,32-proinsulin; competitor AC1D4 20 µg/ml
human proinsulin (human) [15] = target: human proinsulin (human) (UniProt P01308); experiment: competitive RIA, PEP001-coated tubes, 125I-Tyr-C-peptide; serum E1 overloaded with 0.16 pmol/ml proinsulin; no AC1D4
des-31,32-proinsulin [16] = target: des-31,32-proinsulin (UniProt P01308); experiment: competitive RIA, PEP001-coated tubes, 125I-Tyr-C-peptide; serum E1 overloaded with 0.16 pmol/ml des-31,32-proinsulin; competitor AC1D4 20 µg/ml
des-31,32-proinsulin [17] = target: des-31,32-proinsulin (UniProt P01308); experiment: competitive RIA, PEP001-coated tubes, 125I-Tyr-C-peptide; serum E2 overloaded with 0.16 pmol/ml des-31,32-proinsulin; no AC1D4
des-31,32-proinsulin [18] = target: des-31,32-proinsulin (UniProt P01308); experiment: sandwich immunoenzymatic C-peptide assay: PEP001 beads, goat polyclonal anti-C-peptide-alkaline phosphatase; competitor AC1D4 20 µg/ml
des-64,65-proinsulin [19] = target: des-64,65-proinsulin (UniProt P01308); experiment: as above
human proinsulin (human) [20] = target: human proinsulin (human) (UniProt P01308); experiment: as above
des-31,32-proinsulin [21] = target: des-31,32-proinsulin (UniProt P01308); experiment: competitive RIA, PEP001-coated tubes, 125I-Tyr-C-peptide; serum E1 overloaded with 0.16 pmol/ml des-31,32-proinsulin; no AC1D4
human proinsulin (human) [22] = target: human proinsulin (human) (UniProt P01308); experiment: competitive RIA, PEP001-coated tubes, 125I-Tyr-C-peptide; serum E2 overloaded with 0.67 pmol/ml proinsulin; competitor AC1D4 20 µg/ml
human proinsulin (human) [23] = target: human proinsulin (human) (UniProt P01308); experiment: competitive RIA, PEP001-coated tubes, 125I-Tyr-C-peptide; serum E2 overloaded with 0.16 pmol/ml proinsulin; competitor AC1D4 20 µg/ml
des-64,65-proinsulin [24] = target: des-64,65-proinsulin (UniProt P01308); experiment: competitive RIA, PEP001-coated tubes, 125I-Tyr-C-peptide; serum E1 overloaded with 3.33 pmol/ml des-64,65-proinsulin; no AC1D4
des-31,32-proinsulin [25] = target: des-31,32-proinsulin (UniProt P01308); experiment: sandwich immunoenzymatic C-peptide assay: PEP001 beads, goat polyclonal anti-C-peptide-alkaline phosphatase; no AC1D4
des-64,65-proinsulin [26] = target: des-64,65-proinsulin (UniProt P01308); experiment: as above
human proinsulin (human) [27] = target: human proinsulin (human) (UniProt P01308); experiment: as above
human proinsulin (human) [28] = target: human proinsulin (human) (UniProt P01308); experiment: competitive RIA, PEP001-coated tubes, 125I-Tyr-C-peptide; serum E2 overloaded with 0.16 pmol/ml proinsulin; no AC1D4
des-31,32-proinsulin [29] = target: des-31,32-proinsulin (UniProt P01308); experiment: competitive RIA, PEP001-coated tubes, 125I-Tyr-C-peptide; serum E2 overloaded with 3.33 pmol/ml des-31,32-proinsulin; no AC1D4

For “PEP001 anti-C-peptide monoclonal antibody”, the Increase after overload (%) (des-64,65-proinsulin [1]) was 10%, the percentage of cross reaction (des-31,32-proinsulin [2]) was 13% and the percentage of cross reaction (des-64,65-proinsulin [3]) was 7%. The percentage of cross reaction (human proinsulin (human) [4]) was 18%, the Increase after overload (%) (human proinsulin (human) [5]) was 56% and the percentage of cross reaction (des-31,32-proinsulin [6]) was 108%. It also gave a percentage of cross reaction (des-64,65-proinsulin [7]) of 94%, a percentage of cross reaction (human proinsulin (human) [8]) of 92% and a percentage of cross reaction (des-31,32-proinsulin [9]) of 115%. The percentage of cross reaction (des-64,65-proinsulin [10]) was 8%, the percentage of cross reaction (human proinsulin (human) [11]) was 8% and the Increase after overload (%) (human proinsulin (human) [12]) was 31%. It also gave an Increase after overload (%) (human proinsulin (human) [13]) of 54%, an Increase after overload (%) (des-31,32-proinsulin [14]) of 12% and an Increase after overload (%) (human proinsulin (human) [15]) of 15%. For the same substance, the Increase after overload (%) (des-31,32-proinsulin [16]) was 5%, the Increase after overload (%) (des-31,32-proinsulin [17]) was 10% and the percentage of cross reaction (des-31,32-proinsulin [18]) was 16%. For the same substance, the percentage of cross reaction (des-64,65-proinsulin [19]) was 85%, the percentage of cross reaction (human proinsulin (human) [20]) was 8% and the Increase after overload (%) (des-31,32-proinsulin [21]) was 8%. For the same substance, the Increase after overload (%) (human proinsulin (human) [22]) was 1%, the Increase after overload (%) (human proinsulin (human) [23]) was 0% and the Increase after overload (%) (des-64,65-proinsulin [24]) was 267%. The percentage of cross reaction (des-31,32-proinsulin [25]) was 108%, the percentage of cross reaction (des-64,65-proinsulin [26]) was 94% and the percentage of cross reaction (human proinsulin (human) [27]) was 92%. For the same substance, the Increase after overload (%) (human proinsulin (human) [28]) was 1% and the Increase after overload (%) (des-31,32-proinsulin [29]) was 59%.
